Assay [1] addresses C-terminal globular region of the collagen VI α1 chain. In words: SAXS; C-terminal regions in solution (α1, 4.3 mg/ml; α2, 4 mg/ml; α4, 3.5 mg/ml; α6, 3.5 mg/ml) after Superdex200 in 10 mM phosphate buffer, 400 mM NaCl, pH 7.4; EMBL-P12 beamline, PETRAIII; molecular weight from the volume of correlation.
Assay [2] has as its target monomeric heterotrimeric collagen VI molecule composed of one α1 chain, one α2 chain and one α3 chain (mouse (endogenous in tissue)) (UniProt Q04857). In words: immunoelectron microscopy after negative staining; native collagen VI tetramers and microfibrils extracted from E14.5 mouse lungs by collagenase digestion; double labelling for 30 min at 37 °C with colloidal gold-labeled antibodies specific for the N-terminal regions of the long α chains.

The target of assay [3] is monomeric heterotrimeric collagen VI molecule composed of one α1 chain, one α2 chain and one α4 chain (mouse (endogenous in tissue)) (UniProt Q04857). The assay is described as above.
Assay [4] addresses monomeric heterotrimeric collagen VI molecule composed of one α1 chain, one α2 chain and one α5 chain (mouse (endogenous in E14.5 lung)) (UniProt Q04857). The description is as above.
Assay [5] has as its target C-terminal globular region of the collagen VI α4 chain. In words: SAXS; C-terminal regions in solution (α1, 4.3 mg/ml; α2, 4 mg/ml; α4, 3.5 mg/ml; α6, 3.5 mg/ml) after Superdex200 in 10 mM phosphate buffer, 400 mM NaCl, pH 7.4; EMBL-P12 beamline, PETRAIII; molecular weight from the volume of correlation.
Assay [6] has as its target monomeric heterotrimeric collagen VI molecule composed of one α1 chain, one α2 chain and one α6 chain (mouse (endogenous in tissue)) (UniProt Q04857). In words: immunoelectron microscopy after negative staining; native collagen VI tetramers and microfibrils extracted from E14.5 mouse lungs by collagenase digestion; double labelling for 30 min at 37 °C with colloidal gold-labeled antibodies specific for the N-terminal regions of the long α chains.

For assay [7], the target named is C-terminal globular region of the collagen VI α2 chain. In words: SAXS; C-terminal regions in solution (α1, 4.3 mg/ml; α2, 4 mg/ml; α4, 3.5 mg/ml; α6, 3.5 mg/ml) after Superdex200 in 10 mM phosphate buffer, 400 mM NaCl, pH 7.4; EMBL-P12 beamline, PETRAIII; molecular weight from the volume of correlation.

On to “C-terminal globular region of the collagen VI α1 chain (domain or fragment)”, for which the stoichiometry N (usually the number of molecules, sites or subunits per partner or assembly) in assay [1] was determined as 2.
“monomeric heterotrimeric collagen VI molecule composed of one α1 chain, one α2 chain and one α3 chain (from UniProt Q04857 20-1025; Q02788 26-1034) (complex)” gave a stoichiometry N in assay [2] of 4.
Consider “monomeric heterotrimeric collagen VI molecule composed of one α1 chain, one α2 chain and one α4 chain, Q04857 20-1025; Q02788 26-1034; A2AX52 23-2309”, for which, in assay [3], the stoichiometry N was 4.
Take “monomeric heterotrimeric collagen VI molecule composed of one α1 chain, one α2 chain and one α5 chain, Q04857 20-1025; Q02788 26-1034; A6H584 19-2640”: in assay [4], the stoichiometry N is 4.
“C-terminal globular region of the collagen VI α4 chain (domain or fragment)” showed a stoichiometry N in assay [5] of 2.
“monomeric heterotrimeric collagen VI molecule composed of one α1 chain, one α2 chain and one α6 chain, Q04857 20-1025; Q02788 26-1034; Q8C6K9 19-2265” displayed a stoichiometry N in assay [6] of 4.
“C-terminal globular region of the collagen VI α2 chain (domain or fragment)”: the stoichiometry N in assay [7] was determined as 2.

Source of the values: publication PMC4777857.
